Consider three molecules from patent publication US20220324978A1 (BIOCYTOGEN PHARMACEUTICALS BEIJING, published 2022).

Assay [1] addresses T1, canine PD-1 (on transfected CHO cells) (canine).
T1 construct: also called dPD-1
T1 chain: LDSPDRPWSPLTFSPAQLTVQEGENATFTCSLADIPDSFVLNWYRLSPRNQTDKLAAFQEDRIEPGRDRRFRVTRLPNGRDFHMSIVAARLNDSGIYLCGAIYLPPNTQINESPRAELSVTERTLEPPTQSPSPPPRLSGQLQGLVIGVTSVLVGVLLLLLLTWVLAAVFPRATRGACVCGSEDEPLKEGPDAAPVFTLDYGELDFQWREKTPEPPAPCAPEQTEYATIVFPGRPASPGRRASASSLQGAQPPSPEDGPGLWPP
The experiment in a line: flow cytometry blocking assay on CHO cells transiently transfected with canine PD-1; antibody at 5 µg/mL; blocked ligand biotin-labeled dPD-L1 (5 µg/ml), detected with Streptavidin-PE. As to the method: (§1) The anti-dPD-1 chimeric antibodies were collected from mouse ascites fluid and purified by chromatography. 25 μl CHO cells transiently transfected with canine PD-1 were added to each well in a plate. The purified antibodies were titrated to the desired final concentrations, and were added to each well at 25 μl per well at 4° C. and incubated for 30 minutes.
(§2) After being washed with phosphate-buffered saline (PBS) twice (1200 rpm, 5 minutes), 50 μl of PE-labeled Streptavidin (Streptavidin-PE) at 1:100 dilution was added into each well, and incubated for 30 minutes at 4° C., followed by PBS wash (1200 rpm, 5 minutes). 20 μl of PBS was added. The signals for PE was detected by flow cytometry (Intellicyt).
(A flow cytometer gives signals particle by particle.)

The target of assay [2] is T1, canine PD-1 (on transfected CHO cells). In words: flow cytometry blocking assay on CHO cells transiently transfected with canine PD-1; antibody at 0.5 µg/mL; blocked ligand biotin-labeled dPD-L1 (5 µg/ml), detected with Streptavidin-PE. As to the method: as §1, §2
Assay [3] has the same target. The experiment in a line: flow cytometry blocking assay on CHO cells transiently transfected with canine PD-1; antibody at 0.05 µg/mL; blocked ligand biotin-labeled dPD-L1 (5 µg/ml), detected with Streptavidin-PE. As to the method:
as §1, §2

For assay [4] the target is unchanged. In words: flow cytometry blocking assay on CHO cells transiently transfected with canine PD-1; antibody at 0.005 µg/mL; blocked ligand biotin-labeled dPD-L1 (5 µg/ml), detected with Streptavidin-PE. As to the method: as §1, §2
For assay [5] the target is unchanged. In words: flow cytometry (MFI) on CHO cells with canine PD-1. As to the method: 25 μl CHO cells were added to each well.
30 μl of PBS was then added.

The target of assay [6] is T2, feline PD-1 (on transfected CHO cells) (feline).
T2 construct: Expressed from a vector that also expresses EGFP; also called cPD-1
T2 chain: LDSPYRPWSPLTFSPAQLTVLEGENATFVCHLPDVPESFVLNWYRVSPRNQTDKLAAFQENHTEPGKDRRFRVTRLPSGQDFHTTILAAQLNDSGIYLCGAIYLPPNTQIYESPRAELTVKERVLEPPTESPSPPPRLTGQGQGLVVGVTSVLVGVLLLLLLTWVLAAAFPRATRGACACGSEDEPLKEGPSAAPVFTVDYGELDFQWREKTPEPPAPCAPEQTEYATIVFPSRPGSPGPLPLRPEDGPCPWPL
The experiment in a line: flow cytometry (MFI) on CHO cells with feline PD-1 and EGFP. As to the method: In FIG. 9, the CHO cells were transfected with an expression vector that expresses feline PD-1 and EGFP. 25 μl purified anti-dPD-1 chimeric antibodies with different concentrations were added to each well. After being washed with PBS (1200 rmp, 5 min) twice, 50 μl of Alexa Fluor 647 labeled anti-dog IgG Fc antibody (anti-dIgG Fc-647) was added into each well at 1:500 dilution, followed by incubating at 4° C. for 30 minutes, and then PBS wash (1200 rmp, 5 min). 30 μl of PBS was then added. […] EC50 were also determined from the data.

Assay [7] deals with T3, human PD-1 (on transfected CHO cells) (human, UniProt Q15116 25-288).
T3 construct: also called hPD-1
The experiment in a line: flow cytometry on CHO-hPD-1 cells; Anti-dog-IgG Fc-FITC (1:100). As to the method:
After being washed with PBS (1200 rmp, 5 min) twice, FITC labeled anti-dog IgG Fc antibody (anti-dIgG Fc-FITC) was added into each well 1:100 dilution, followed by incubating at 4° C. for 30 minutes, and then PBS wash (1200 rmp, 5 min). The signals for FITC were determined by flow cytometry.

T3 sequence (Q15116 25-288 limits assumed): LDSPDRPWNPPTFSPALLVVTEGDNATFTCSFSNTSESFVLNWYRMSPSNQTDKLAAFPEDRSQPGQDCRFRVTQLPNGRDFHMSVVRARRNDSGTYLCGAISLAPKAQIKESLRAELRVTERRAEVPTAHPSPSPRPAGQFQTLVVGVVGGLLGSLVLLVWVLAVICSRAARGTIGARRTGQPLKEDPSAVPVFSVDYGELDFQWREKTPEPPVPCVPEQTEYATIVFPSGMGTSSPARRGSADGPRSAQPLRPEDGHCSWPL

B1: 1B9-mHvKv-dIgG4 (antibody, V domains shown)
VH: QVQLQQPGAELVRPGASVKLSCKASGYTFTSFWMNWVKLRPEQGLEWIGRVDPYDSETHYNQKFKDKAILTVDKSSSTAYMQLSSLTSEDSAVYYCATQFGFSWLAYWGQGTLVTVSA
VL: not shown
notes: also called 1B9-mHvKv-IgG4; 1B9-mHvKv-dlgG4
In the case of B1, the “percent of cells in the dPD-L1-positive (PE) gate” value (“percent of cells” below) in assay [1] amounted to 0.504%; in assay [2], 4.4%; in assay [3], 47%; in assay [4], 45.1%.

B2: 4A7-mHvKv-dIgG4 (antibody, V domains shown)
VH: EVQLVESGGDLVKPGGSLKLSCVASGFPFSNFGMSWVRQTPDKRLEWVATISSGSSYSYYSDSVKGRFTISRDNAKNTLFLQMNSLKSEDTAIFYCARGESRFAYWGQGTLVTVSA
VL: DVVITQDELSNPVTSGESVSISCRSNKSLLYEDGQTYLNWFLQRPGQSPQLLIYLMSTRASGVSDRFSGSGSGTDFTLEISEVRAEDVGVYYCQQLIEYPLTFGAGTKLELKR
notes: also called 4A7-mHvKv-IgG4; 4A7-mHvKv-dlgG4
Regarding B2, the EC50 (in general, the concentration needed to bring the measured effect to its halfway point) in assay [5] is 4.81 nM; in assay [6], 1.53 nM. The “percent of cells” value in assay [1] came out at 3.37%; in assay [2] it was 1.7%; in assay [3], 27.1%; in assay [4], 34.1%.

B3: 1D8-mHvKv-dIgG4 (antibody, V domains shown)
VH: EVQLVESGGDLVKPGGSLKLSCAASGFTFNNFGMSWVRQNPDKRLEWVATLSSGSSYTYYSDSVKGRFTISRDNAKNTLYLQMNSLKSEDTAMYYCTRGESRFAYWGQGTLVTVSA
VL: GVVITQDELSNPVTSGESVSISCRSSKSLLYKDGKTYLNWFLQRPGQSPQLLIYLMSTRASGVSDRFSGSGSGTDFTLEISRVKAEDVGVYYCQQLIEYPLTFGAGTKLELKR
notes: also called 1D8-mHvKv-IgG4; 1D8-mHvKv-dlgG4
On to B3, for which the half-maximal effective concentration (EC50) in assay [6] amounted to 7.29 nM. Besides, in assay [7], the binding result was “no binding (tested: 10 µg/ml)”. The “percent of cells” value in assay [1] was found to be 4.38%; in assay [2] it was 0.161%; in assay [3] it was 18.8%; in assay [4], 39.2%.
